Results reported in patent publication US20150344570A1 (published 2015).

T1: FcγRIIb (human, UniProt P31994 43-217)
T1 construct: extracellular domain; also called FcgRIIb; 2b; not shown: His tag at the C terminus
T1 sequence (looked up): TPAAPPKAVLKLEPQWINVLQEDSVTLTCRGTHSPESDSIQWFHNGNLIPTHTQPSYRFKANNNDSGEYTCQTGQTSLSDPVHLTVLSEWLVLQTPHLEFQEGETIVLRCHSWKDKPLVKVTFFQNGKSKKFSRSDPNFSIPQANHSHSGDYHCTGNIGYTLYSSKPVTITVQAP

T2: FcγRIIa H (human, UniProt P12318 34-217)
T2 construct: extracellular domain; also called FcgRIIa H; 2aH; not shown: His tag at the C terminus
T2 sequence (looked up): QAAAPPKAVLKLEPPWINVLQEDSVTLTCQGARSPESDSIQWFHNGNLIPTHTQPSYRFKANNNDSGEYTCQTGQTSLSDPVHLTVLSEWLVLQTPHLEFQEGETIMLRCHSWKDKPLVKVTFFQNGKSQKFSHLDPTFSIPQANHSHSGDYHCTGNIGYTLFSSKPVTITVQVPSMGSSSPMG

B1: GpH7-A5/GpH7-B3 variant P329_01G/GpL16-k0 (antibody, human IgG1, kappa)
heavy 1: not shown
heavy 2: not shown
light: DIVMTQSPLSLPVTPGEPASISCQASESLVHSNRNTYLHWYLQKPGQSPQLLIYKVSNRFSGVPDRFSGSGSGTDFTLKISRVEAEDVGVYYCSQNTHVPPTFGQGTKVEIERTVAAPSVFIFPPSDEQLKSGTASVVCLLNNFYPREAKVQWKVDNALQSGNSQESVTEQDSKDSTYSLSSTLTLSKADYEKHKVYACEVTHQGLSSPVTKSFNRGEC
notes: He Ab: mutation in the GpH7-B3 H chain only
B2: GpH7-A5/GpH7-B3 variant E333_01G/GpL16-k0 (antibody, human IgG1, kappa)
heavy 1: not shown
heavy 2: not shown
light: B1 light
notes: as for B1
B3: GpH7-A5/GpH7-B3 variant S324_01G/GpL16-k0 (antibody, human IgG1, kappa)
heavy 1: not shown
heavy 2: not shown
light: B1 light
notes: as for B1
B4: GpH7-A5/GpH7-B3 variant P329_14T/GpL16-k0 (antibody, human IgG1, kappa)
heavy 1: not shown
heavy 2: not shown
light: B1 light
notes: as for B1
B5: GpH7-A5/GpH7-B3 variant A330_14T/GpL16-k0 (antibody, human IgG1, kappa)
heavy 1: not shown
heavy 2: not shown
light: B1 light
notes: as for B1
B6: GpH7-A5/GpH7-B3 variant P329_13S/GpL16-k0 (antibody, human IgG1, kappa)
heavy 1: not shown
heavy 2: not shown
light: B1 light
notes: as for B1
B7: GpH7-A5/GpH7-B3 variant E333_13S/GpL16-k0 (antibody, human IgG1, kappa)
heavy 1: not shown
heavy 2: not shown
light: B1 light
notes: as for B1
B8: GpH7-A5/GpH7-B3 variant I336_19Q/GpL16-k0 (antibody, human IgG1, kappa)
heavy 1: not shown
heavy 2: not shown
light: B1 light
notes: as for B1
B9: GpH7-A5/GpH7-B3 variant P329_07I/GpL16-k0 (antibody, human IgG1, kappa)
heavy 1: not shown
heavy 2: not shown
light: B1 light
notes: as for B1
B10: GpH7-A5/GpH7-B3 variant P329_12R/GpL16-k0 (antibody, human IgG1, kappa)
heavy 1: not shown
heavy 2: not shown
light: B1 light
notes: He Ab: P329R (EU numbering) in the GpH7-B3 H chain only; also called GpH7-A5/GpH7-B12/GpL16-k0
B11: GpH7-A5/GpH7-B3 variant A327_06M/GpL16-k0 (antibody, human IgG1, kappa)
heavy 1: not shown
heavy 2: not shown
light: B1 light
notes: as for B1
B12: GpH7-A5/GpH7-B3 variant A327_04F/GpL16-k0 (antibody, human IgG1, kappa)
heavy 1: not shown
heavy 2: not shown
light: B1 light
notes: as for B1
B13: GpH7-A5/GpH7-B3 variant P329_11K/GpL16-k0 (antibody, human IgG1, kappa)
heavy 1: not shown
heavy 2: not shown
light: B1 light
notes: He Ab: P329K (EU numbering) in the GpH7-B3 H chain only; also called GpH7-A5/GpH7-B13/GpL16-k0
B14: GpH7-A5/GpH7-B3 variant P329_08L/GpL16-k0 (antibody, human IgG1, kappa)
heavy 1: not shown
heavy 2: not shown
light: B1 light
notes: as for B1
B15: GpH7-A5/GpH7-B3 variant A327_19Q/GpL16-k0 (antibody, human IgG1, kappa)
heavy 1: not shown
heavy 2: not shown
light: B1 light
notes: as for B1
B16: GpH7-A5/GpH7-B3 variant N325_12R/GpL16-k0 (antibody, human IgG1, kappa)
heavy 1: not shown
heavy 2: not shown
light: B1 light
notes: as for B1
B17: GpH7-A5/GpH7-B3 variant P329_16H/GpL16-k0 (antibody, human IgG1, kappa)
heavy 1: not shown
heavy 2: not shown
light: B1 light
notes: as for B1
B18: GpH7-A5/GpH7-B3 variant E333_11K/GpL16-k0 (antibody, human IgG1, kappa)
heavy 1: not shown
heavy 2: not shown
light: B1 light
notes: as for B1
B19: GpH7-A5/GpH7-B3 variant I332_12R/GpL16-k0 (antibody, human IgG1, kappa)
heavy 1: not shown
heavy 2: not shown
light: B1 light
notes: as for B1
B20: GpH7-A5/GpH7-B3 variant P329_19Q/GpL16-k0 (antibody, human IgG1, kappa)
heavy 1: not shown
heavy 2: not shown
light: B1 light
notes: as for B1
B21: GpH7-A5/GpH7-B3 variant P329_03V/GpL16-k0 (antibody, human IgG1, kappa)
heavy 1: not shown
heavy 2: not shown
light: B1 light
notes: as for B1
B22: GpH7-A5/GpH7-B3 variant I332_18N/GpL16-k0 (antibody, human IgG1, kappa)
heavy 1: not shown
heavy 2: not shown
light: B1 light
notes: as for B1
B23: GpH7-A5/GpH7-B3 variant A330_08L/GpL16-k0 (antibody, human IgG1, kappa)
heavy 1: not shown
heavy 2: not shown
light: B1 light
notes: He Ab: A330L (EU numbering) in the GpH7-B3 H chain only; also called GpH7-A5/GpH7-B3-20-08L/GpL16-k0
B24: GpH7-A5/GpH7-B3 variant P329_15Y/GpL16-k0 (antibody, human IgG1, kappa)
heavy 1: not shown
heavy 2: not shown
light: B1 light
notes: as for B1
B25: GpH7-A5/GpH7-B3 variant I336_20W/GpL16-k0 (antibody, human IgG1, kappa)
heavy 1: not shown
heavy 2: not shown
light: B1 light
notes: as for B1
B26: GpH7-A5/GpH7-B3 variant P329_06M/GpL16-k0 (antibody, human IgG1, kappa)
heavy 1: not shown
heavy 2: not shown
light: B1 light
notes: as for B1
B27: GpH7-A5/GpH7-B3 variant N325_11K/GpL16-k0 (antibody, human IgG1, kappa)
heavy 1: not shown
heavy 2: not shown
light: B1 light
notes: as for B1
B28: GpH7-A5/GpH7-B3 variant E333_18N/GpL16-k0 (antibody, human IgG1, kappa)
heavy 1: not shown
heavy 2: not shown
light: B1 light
notes: as for B1
B29: GpH7-A5/GpH7-B3 variant A330_07I/GpL16-k0 (antibody, human IgG1, kappa)
heavy 1: not shown
heavy 2: not shown
light: B1 light
notes: as for B1
B30: GpH7-A5/GpH7-B3 variant A330_13S/GpL16-k0 (antibody, human IgG1, kappa)
heavy 1: not shown
heavy 2: not shown
light: B1 light
notes: as for B1
B31: GpH7-A5/GpH7-B3 variant P329_18N/GpL16-k0 (antibody, human IgG1, kappa)
heavy 1: not shown
heavy 2: not shown
light: B1 light
notes: as for B1
B32: GpH7-A5/GpH7-B3 variant A330_18N/GpL16-k0 (antibody, human IgG1, kappa)
heavy 1: not shown
heavy 2: not shown
light: B1 light
notes: as for B1
B33: GpH7-A5/GpH7-B3 variant P329_04F/GpL16-k0 (antibody, human IgG1, kappa)
heavy 1: not shown
heavy 2: not shown
light: B1 light
notes: as for B1
B34: GpH7-A5/GpH7-B3 variant A330_03V/GpL16-k0 (antibody, human IgG1, kappa)
heavy 1: not shown
heavy 2: not shown
light: B1 light
notes: as for B1
B35: GpH7-A5/GpH7-B3 variant P329_02A/GpL16-k0 (antibody, human IgG1, kappa)
heavy 1: not shown
heavy 2: not shown
light: B1 light
notes: as for B1
B36: GpH7-A5/GpH7-B3 variant A330_12R/GpL16-k0 (antibody, human IgG1, kappa)
heavy 1: not shown
heavy 2: not shown
light: B1 light
notes: as for B1
B37: GpH7-A5/GpH7-B3 variant I332_03V/GpL16-k0 (antibody, human IgG1, kappa)
heavy 1: not shown
heavy 2: not shown
light: B1 light
notes: as for B1

What follows are binders tested against T1, FcγRIIb (assay: SPR (Biacore), FcγR passed over captured antibody; binding amount as % of control GpH7-A5/GpH7-B3/GpL16-k0 (=100)).
Experimental: (§1) The heterodimerized antibodies He Abs in which one of the H chains was introduced with an alteration were assayed for their binding activities to each activating FcγR and inhibitory FcγR according to the method described in Example 4. […] The activating FcγRs in FIGS. 26, 27, 28, and 29 are FcγRIa, FcγRIIa (R), FcγRIIa (H), and FcγRIIIa, respectively.
(§2) Analysis of interaction between objective antibody and the FcγR was carried out using Biacore T100 (GE Healthcare). HBS-EP+ (GE Healthcare) was used as the running buffer, and the measurement temperature was set to 25° C. Chips produced by immobilizing the antigen peptide by the amine coupling method to a Series S Sencor Chip CM5 (GE Healthcare), or alternatively, chips produced by allowing preliminarily biotinylated antigen peptides to interact with and immobilize onto a Series S Sensor Chip SA (certified) (GE Healthcare) were used. Antibodies of interest were captured onto an antigen peptide-immobilized chip, and allowed to interact to each FcγR diluted with running buffer. To regenerate and repeatedly use the chip, the antibodies captured on the chip were washed off by reacting 10 mM glycine-HCl, pH 1.5.

He/Con_2b | Binder
41.7 relative, control = 100 | B1
81.4 relative, control = 100 | B2
81.1 relative, control = 100 | B3
37.9 relative, control = 100 | B4
77.9 relative, control = 100 | B5
41 relative, control = 100 | B6
81.8 relative, control = 100 | B7
58.2 relative, control = 100 | B8
34.6 relative, control = 100 | B9
17.6 relative, control = 100 | B10
59.5 relative, control = 100 | B11
63.7 relative, control = 100 | B12
16.9 relative, control = 100 | B13
29.1 relative, control = 100 | B14
54.2 relative, control = 100 | B15
19.1 relative, control = 100 | B16
39.1 relative, control = 100 | B17
80.6 relative, control = 100 | B18
48.9 relative, control = 100 | B19

He/Con_2b | Binder
30.7 relative, control = 100 | B20
38.5 relative, control = 100 | B21
89.9 relative, control = 100 | B22
70.5 relative, control = 100 | B23
45.7 relative, control = 100 | B24
20.3 relative, control = 100 | B25
29.1 relative, control = 100 | B26
10.4 relative, control = 100 | B27
76.1 relative, control = 100 | B28
67.1 relative, control = 100 | B29
41.3 relative, control = 100 | B30
40.4 relative, control = 100 | B31
63.7 relative, control = 100 | B32
32.2 relative, control = 100 | B33
52.4 relative, control = 100 | B34
40.5 relative, control = 100 | B35
84.8 relative, control = 100 | B36
80.7 relative, control = 100 | B37

These binders were tested against T2, FcγRIIa H in the same assay as above.
Experimental: as §1, §2

He/Con_2aH | Binder
54.9 relative, control = 100 | B1
97.7 relative, control = 100 | B2
98.8 relative, control = 100 | B3
62.4 relative, control = 100 | B4
94.5 relative, control = 100 | B5
67.3 relative, control = 100 | B6
101 relative, control = 100 | B7
73.7 relative, control = 100 | B8
53.8 relative, control = 100 | B9
46.4 relative, control = 100 | B10
75.5 relative, control = 100 | B11
84.4 relative, control = 100 | B12
46.2 relative, control = 100 | B13
45.4 relative, control = 100 | B14
67.3 relative, control = 100 | B15
29.9 relative, control = 100 | B16
66.1 relative, control = 100 | B17
98.1 relative, control = 100 | B18
87.8 relative, control = 100 | B19

He/Con_2aH | Binder
38.7 relative, control = 100 | B20
60.4 relative, control = 100 | B21
110 relative, control = 100 | B22
87.6 relative, control = 100 | B23
68.7 relative, control = 100 | B24
30.9 relative, control = 100 | B25
43.7 relative, control = 100 | B26
16.1 relative, control = 100 | B27
96.2 relative, control = 100 | B28
87.3 relative, control = 100 | B29
65.4 relative, control = 100 | B30
66.2 relative, control = 100 | B31
81.6 relative, control = 100 | B32
44.5 relative, control = 100 | B33
79.7 relative, control = 100 | B34
65.7 relative, control = 100 | B35
108 relative, control = 100 | B36
105 relative, control = 100 | B37

The binders below were run against T2, FcγRIIa H (assay: SPR (Biacore); He/Con_2aH divided by He/Con_2b (FcγRIIa H versus FcγRIIb)).
Experimental: as §1, §2

He_2aH/2b (IIaH/IIb) [ratio] | Binder
1.32 | B1
1.2 | B2
1.22 | B3
1.65 | B4
1.21 | B5
1.64 | B6
1.23 | B7
1.27 | B8
1.56 | B9
2.63 | B10
1.27 | B11
1.32 | B12
2.74 | B13
1.56 | B14
1.24 | B15
1.56 | B16
1.69 | B17
1.22 | B18
1.8 | B19

He_2aH/2b (IIaH/IIb) [ratio] | Binder
1.26 | B20
1.57 | B21
1.22 | B22
1.24 | B23
1.5 | B24
1.52 | B25
1.5 | B26
1.55 | B27
1.26 | B28
1.3 | B29
1.58 | B30
1.64 | B31
1.28 | B32
1.38 | B33
1.52 | B34
1.62 | B35
1.27 | B36
1.3 | B37
